What was measured:
[1] = target: recombinant human VEGF165 (PeproTech EC Ltd.) (human) (UniProt P15692); assay: SPR, BIAcore T100, hVEGF165 amine-coupled on CM4 chip, scFv as analyte
[2] = target: VEGF (as used in the VEGFR competition ELISA); assay: competition ELISA, VEGF binding to hVEGFR1; ratio to reference Luc
[3] = target: Human TNFα N-his trimers (human) (UniProt P01375); assay: SPR, BIAcore T100, His-tagged human TNFα trimers captured on NTA chip, scFv as analyte
Chain of Human TNFα N-his trimers (human) (P01375 77-233 limits assumed): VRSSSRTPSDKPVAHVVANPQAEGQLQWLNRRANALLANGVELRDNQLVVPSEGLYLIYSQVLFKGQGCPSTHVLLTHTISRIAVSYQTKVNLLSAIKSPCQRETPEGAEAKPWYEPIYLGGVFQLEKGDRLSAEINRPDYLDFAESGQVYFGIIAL

Chain of recombinant human VEGF165 (PeproTech EC Ltd.) (human) (P15692 other isoform, or with tags, fused parts or gaps limits assumed): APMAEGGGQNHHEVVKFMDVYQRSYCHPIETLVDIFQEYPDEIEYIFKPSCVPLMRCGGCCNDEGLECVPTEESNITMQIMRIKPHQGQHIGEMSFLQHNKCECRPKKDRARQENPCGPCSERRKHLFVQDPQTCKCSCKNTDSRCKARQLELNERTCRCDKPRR
Chain of VEGF (as used in the VEGFR competition ELISA) (P15692 whole entry): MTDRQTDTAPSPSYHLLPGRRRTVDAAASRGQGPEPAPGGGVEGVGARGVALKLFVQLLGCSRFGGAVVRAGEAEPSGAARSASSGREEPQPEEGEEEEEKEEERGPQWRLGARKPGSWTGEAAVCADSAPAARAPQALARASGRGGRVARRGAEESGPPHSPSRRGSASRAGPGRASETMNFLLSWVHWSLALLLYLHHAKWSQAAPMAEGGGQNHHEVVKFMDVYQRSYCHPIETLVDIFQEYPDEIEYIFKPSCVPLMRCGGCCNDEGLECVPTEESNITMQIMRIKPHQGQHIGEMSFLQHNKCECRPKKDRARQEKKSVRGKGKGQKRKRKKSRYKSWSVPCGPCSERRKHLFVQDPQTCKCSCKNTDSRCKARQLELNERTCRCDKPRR

Kd [1] [nM]	koff [1] [s⁻¹]	kon [1] [M⁻¹ s⁻¹]	Rel. activity hVEGR1 comp. ELISA (EC50Luc [nM]/EC50test [nM]) [2]	Kd [3] [nM]	Binder
0.439	0.000307	700000			578-max (scFv, from a related filing, part only) scFv: EIVMTQSPSTLSASVGDRVIITCQASEIIHSWLAWYQQKPGKAPKLLIYLASTLASGVPSRFSGSGSGTQFTLTISSLQPDDFATYYCQNVYLASTNGANFGQGTKLTVLGGGGGSGGGGSGGGGSGGGGSEVQLVESGGGLVQPGGSLRLSCTASGFSLTDYYYMTWVRQAPGKGLEWVGFIDPDDDPYYATWAKGRFTISRDTSKNTVYLQMNSLRAEDTAVYYCAGGDHNSGWGLDIWGQGTLVTVSS
0.0667	4.4e-05	659000	8		511-max (scFv, from a related filing, part only) scFv: EIVMTQSPSTLSASVGDRVIITCQASQSINIWLSWYQQKPGKAPKLLIYRASTLASGVPSRFSGSGSGTEFTLTISSLQPDDFATYYCQANYAYSAGYGAAFGQGTKLTVLGGGGGSGGGGSGGGGSGGGGSEVQLVESGGGLVQPGGSLRLSCTVSGFSLNTYYMNWVRQAPGKGLEWVGIIAPDDTTYYASWAKSRSTISRDTSKNTVYLQMNSLRAEDTAVYYCARSGDTTAWGADIWGQGTLVTVSS
				5540	EP43_min (scFv) scFv: EIVMTQSPSTLSASVGDRVIITCQASQSISDWLAWYQQKPGKAPKLLIYGASRLASGVPSRFSGSGSGAEFTLTISSLQPDDFATYYCQQGWSDSYVDNLFGQGTKLTVLGGGGGSGGGGSGGGGSGGGGSEVQLVESGGGLVQPGGSLRLSCAASGFSLSSGAMSWVRQAPGKGLEWVSVIISSGATYYASWAKGRFTISRDNSKNTLYLQMNSLRAEDTAVYYCAKGGPDDSNSMGTFDPWGQGTLVTVSS
